Measurements reported in the RNAGym collection of RNA variant scans (doi:10.7554/elife.80360).

B1: HDV Ribozyme (parent)
chain: GGCCGGCAUGGUCCCAGCCUCCUCGCUGGCGCCGGCUGGGCAACAUUCCGAGGGGACCGUCCCCUCGGUAAUGGCGAAUGGGACCCA

Variants of: B1
Assay: self-cleavage, relative activity (ratio to wild type); higher = more cleavage; co-transcriptional

In order of falling self-cleavage:
1. GGCCGGCAUGGUCCCAGCCUCCUCGCUGGCGCCGGCUGGGCAACAUUCCGAGGGGACCCUCCCCUCGGAAAUGGCGAAUGGGACCCA [G59C U69A]  1.27
2. GGCCGGCAAGGUCCCAGCCUCCUCGCUGGCGCCGGCUGGGCAACAUUCCGAGGGGACCGUCCUCUCGGUAAUGGCGAAUGGGACCCA [U9A C63U]  1.19
3. GGCCGGCAUGGUCCCAGCCUCCUCGCUGGCGCUGGCUGGACAACAUUCCGAGGGGACCGUCCCCUCGGUAAUGGCGAAUGGGACCCA [C33U G40A]  1.06
4. GGCCGGCAUGGUCCCAGCCUCCUCGCUGGCGCCGGCUGGGCAACAUUCCGAGGUGACCGUCCCCUCGGUAAUGGCGAAUGGGACCCC [G54U A87C]  1.06
5. GGCCGGCAUGGUCCCAGCCUCCACGCUGGCGCCGGCUGGGCAACAUUCCGAGGGGACCGUCCCGUCGGUAAUGGCGAAUGGGACCCA [U23A C64G]  1.03
6. GGCCGGCAUGGUCCCAGCCUCCUCGCUGGCGCCGGCUGGGCAACAUUCCGAGGGGACCGUACCCUAGGUAAUGGCGAAUGGGACCCA [C61A C66A]  0.992
7. GGCCGGCAGUGUCCCAGCCUCCUCGCUGGCGCCGGCUGGGCAACAUUCCGAGGGGACCGUCCCCUCGGUAAUGGCGAAUGGGACCCA [U9G G10U]  0.987
8. GGCCGGCAUGGUCCCAGCCUCCUCGCUGGCGCCGGCUGGGCAACAUUCGGAGGGGACCGUCCCCUCGGUAAUGGCGAAUGGGACCAA [C49G C86A]  0.966
9. GGCCGGCAUGGUCCCAGCCUCCUCGCUGGCGCCGGCUGGGCAACAUUCCGAGGUGACCGACCCCUCGGUAAUGGCGAAUGGGACCCA [G54U U60A]  0.946
10. GGCCGGCAUGGUCCCAGCCUCCUCGCUGGCGCCGGCUGGGCAACAUACCGAGGUGACCGUCCCCUCGGUAAUGGCGAAUGGGACCCA [U47A G54U]  0.91
11. GGCCGGCAUGGUCCCCGCCUCCUCGCUGGCGCCGGCUGGGCAACAUUCCGAGGGGACCGUCCUCUCGGUAAUGGCGAAUGGGACCCA [A16C C63U]  0.895
12. GGCCGGCAUGGUCCCAGCCUCCUCGCUGGCGCCGGCUGGGCAACAUUCCGGGGGGACCGUUCCCUCGGUAAUGGCGAAUGGGACCCA [A51G C61U]  0.889
13. GGCCGGCAUAGUCCCAGCCUCCUCGCUGGCGCCGGCUGGGCAACAUUCCGAGAGGACCGUCCCCUCGGUAAUGGCGAAUGGGACCCA [G10A G53A]  0.841
14. GGCCGGCAUGGUCCCAGCCUCCUCGCUGGCGCCGGCUGGGCAACAUUCCGAGGUGACCGUCCCGUCGGUAAUGGCGAAUGGGACCCA [G54U C64G]  0.831
15. GGCCGGCAUGGUCCCAGCCUCCUCGCUGGCGCCGGCUGGGCAACAUUUCGAGGGGACCGUCCCCUCGGUACUGGCGAAUGGGACCCA [C48U A71C]  0.789
16. GGCCGGUAUGGUCCCAGCCUCCUCGCUGGCGCCGGCUGGGCAACAUUACGAGGGGACCGUCCCCUCGGUAAUGGCGAAUGGGACCCA [C7U C48A]  0.767
17. GGCCGGCAUGGUCACAGCCUCCUCGCUGGCGCCGGCUGGGCAACAUUCCGAGGGGACCGUCCCCUCGGUAAUGGCGGAUGGGACCCA [C14A A77G]  0.755
18. GGCCGGCAUGGUCCGAGCCUCCUCGCUGGCGCCGGCUGGGCAACAGUCCGAGGGGACCGUCCCCUCGGUAAUGGCGAAUGGGACCCA [C15G U46G]  0.755
19. GGCCGGCAUGGUCCCAGCCUCCUAGCUGGCGCCGGCUGGGCAACAUUCCGAGGGGACCGUCCCCUCGGUAAUGGCGAAUGGGACCGA [C24A C86G]  0.724
20. GGCCGGCAUGGUCCCAGCCUCCUCGCUGGCGCCGGCUGGGCAACAUUCCGAGGGGACAGUCCCCUCGGUAAUGGCGAAUGGGCCCCA [C58A A83C]  0.723
21. GGCCGGCAUGGUCCCAGCCUCCUCGCUGGCGCCGGCUGGCAAACAUUCCGAGGGGACCGUCCCCUCGGUAAUGGCGAAUGGGACCCA [G40C C41A]  0.706
22. GGCCGGCAUGGGCCCAGCCUCCUCGCUGGCGCCGGCUGGGCAACAUUCCGAGGGGACCGUCCCCUCGGUAAUGGCGAAUGCGACCCA [U12G G81C]  0.665
23. GGGCGGCAUGGUCCCAGCCUCCUCGCUGGCGCCGGCUGGGCAACAUUCCGAGGGGACCGUCCCCUCGGUAAUGGCCAAUGGGACCCA [C3G G76C]  0.65
24. GGCCGUCAUGGUCCCAGCCUCCUCGCUGGCGCCGGCUGGUCAACAUUCCGAGGGGACCGUCCCCUCGGUAAUGGCGAAUGGGACCCA [G6U G40U]  0.633
25. GGCCGGCAUGGUCGCAGCCUCCUCGCUGGCGCCGGCUGGGCAACAUUCCGAGGGGACCGUCCGCUCGGUAAUGGCGAAUGGGACCCA [C14G C63G]  0.573
26. GGCCGGCAUGGUCCCAGCCUCCUCGCCGGCGCCGGCUGGGCAACAUCCCGAGGGGACCGUCCCCUCGGUAAUGGCGAAUGGGACCCA [U27C U47C]  0.511
27. GGACGGCAUGGUCCCAGCCUCCUCGCUGGCGCCGGCUGGGCAACAUUCGGAGGGGACCGUCCCCUCGGUAAUGGCGAAUGGGACCCA [C3A C49G]  0.51
28. GGCCGCCAUGGUCCCAGCCUCCUCGCUGGCGCCGGCUGGGCAACAUUCCGAGGGGACCAUCCCCUCGGUAAUGGCGAAUGGGACCCA [G6C G59A]  0.492
29. GGCCGGCAUGGGCCUAGCCUCCUCGCUGGCGCCGGCUGGGCAACAUUCCGAGGGGACCGUCCCCUCGGUAAUGGCGAAUGGGACCCA [U12G C15U]  0.453
30. GGCCGGCAUGGUCCCAGCCUCCUCGCUGGCGCCGGCUGGGCAACAGUCCGAGGGGACCGACCCCUCGGUAAUGGCGAAUGGGACCCA [U46G U60A]  0.453
31. GGCCGGCAUGGUCCCAGCCUCCUCGCUGGCGCCGGCUGGGCAACAUUCCGAGGGGACCGUCCCCUCGGUACUGACGAAUGGGACCCA [A71C G74A]  0.453
32. GGCCGGCAUGGUCUCAGCCUCCUCGCUGGCGCCGGCUGGGCAUCAUUCCGAGGGGACCGUCCCCUCGGUAAUGGCGAAUGGGACCCA [C14U A43U]  0.443
33. GGCCGGCAUGGUCCCAGCCUCCUCGCUGGCGCCGGCUGGGCAGCAUUCCGAGGGGACCGUCCCCUCGGUAAUGGCGAAUGGGAUCCA [A43G C84U]  0.426
34. GGCCGGCAUGGUCCCAGCCCCCUCGCUGGCGCCGGCUGGGCAACAUUCCGAGGGGACCGUCCCCCCGGUAAUGGCGAAUGGGACCCA [U20C U65C]  0.401
35. GGCCGGCAUGGUCCCAGCCUCCUCGCUGGCGCCGGCUGGGCAACAUUCCGAGGGGACCGUCCCCUCGGUAAGGGCGAUUGGGACCCA [U72G A78U]  0.356
36. GGCCGGCAUGGUCCCAGCCUCCUCGCUGGUGCCGGCUGGGCAACAUUCCGAGGGGACCGUCCCCUCGGUAAUGGCGAAUGGGCCCCA [C30U A83C]  0.332
37. GGCCGGCAUGGUCCCAGCCUCCGCGCUGGCGCCGACUGGGCAACAUUCCGAGGGGACCGUCCCCUCGGUAAUGGCGAAUGGGACCCA [U23G G35A]  0.324
38. GGCCGGCAUGGUCCCAGCCUCCUCGCUGGCGCCGGCUGGGCACCAUUCCGAGGGGACCGUCCCCUCAGUAAUGGCGAAUGGGACCCA [A43C G67A]  0.322
39. GGCCGGCAUGGUCCCAGCCUCCUCGCUGGCGCAGGCUGGGCAACAUUCCGAGGGGACCGUCCCGUCGGUAAUGGCGAAUGGGACCCA [C33A C64G]  0.289
40. GGCCGGCAUGGUCCCAGCCUCCUCGCUGGCGCCGGCUGGGCAACAUUCCGAGGGGACCGUCCCAUCGGUAAUGGCGACUGGGACCCA [C64A A78C]  0.242
41. GGCCGGCAUGGUCCCAGCCUCCUCGCUGGCGACGGCUGGGCAACAUUCCGAGGGGACCGUCCACUCGGUAAUGGCGAAUGGGACCCA [C32A C63A]  0.232
42. GGCCGGCUUGGUCCCAGCCUCCUAGCUGGCGCCGGCUGGGCAACAUUCCGAGGGGACCGUCCCCUCGGUAAUGGCGAAUGGGACCCA [A8U C24A]  0.208
43. GGCCGGCAUGGUCCCAGCCUCCUCGCUGGCGCCGGCAGGGCAACAUUCCGAGGGGACCGUCCCCUCGGUUAUGGCGAAUGGGACCCA [U37A A70U]  0.196
44. GGCCGGCAUGGUCCCAGCCUCCUCGCUGGCGCCGGCUGGGCAACAUUCCGAGGAGACCGUCCCCUCGGUAAUGCCGAAUGGGACCCA [G54A G74C]  0.194
45. GGCCGGCAAGGUCCCAGCCUCCUCGCUGGCGCAGGCUGGGCAACAUUCCGAGGGGACCGUCCCCUCGGUAAUGGCGAAUGGGACCCA [U9A C33A]  0.185
46. GGCCGGCAUGGUCCCAGCCUCCUCGCUGGCGCCGGAUGGGGAACAUUCCGAGGGGACCGUCCCCUCGGUAAUGGCGAAUGGGACCCA [C36A C41G]  0.18
47. GGCCGGCAUGGUCCCAGCCUUCUCGCUGGCGCCGGCUGGGCAACAUUCCGAGGGGACCGUCCCCUCGGUAAUGGCGAGUGGGACCCA [C21U A78G]  0.155
48. GGCCGGCAUGGUCCCAGCCUCCUCGCUGGCGCCGGCUGGUCAAUAUUCCGAGGGGACCGUCCCCUCGGUAAUGGCGAAUGGGACCCA [G40U C44U]  0.143
49. GGCCGGCAUGGUCCCAGCCUACUCGCUGGCUCCGGCUGGGCAACAUUCCGAGGGGACCGUCCCCUCGGUAAUGGCGAAUGGGACCCA [C21A G31U]  0.142
50. GGCCGGCAUGGUCCCAGCCUCCUCGCUGGCGCCGGCUGGGCUACAUUCCGAGGGGACCGUCCCCUCGGUAAUGGCGAAUGGGUCCCA [A42U A83U]  0.142
51. GGCCGGCAUGGUCCCAGGCUCCUCGCUGGCGCCGGCUGGGCAACAUUCCGAGGGGACCGUCCCCUCGGUAAUGGCGAAGGGGACCCA [C18G U79G]  0.133
52. GGCCGGCAUGGUCCCAGACUCCUCGCUGGCGCCGGCUGGGCAACAGUCCGAGGGGACCGUCCCCUCGGUAAUGGCGAAUGGGACCCA [C18A U46G]  0.128
53. GGCCGCCAUGGUCCCAGCCUCCUCGCUGGCGCCCGCUGGGCAACAUUCCGAGGGGACCGUCCCCUCGGUAAUGGCGAAUGGGACCCA [G6C G34C]  0.115
54. GGCCGGCAUGGUCCCAGCCUCCUCGCUGGCGCCGGCUGGGCAACAUUCCGAGGGGACCGUCACCUCGGUAAUGCCGAAUGGGACCCA [C62A G74C]  0.113
55. GGCCGGCAUGGUCCCAGCCACCUCGCUGGCGCCGGCUGGGCAACAUUCCGAGGGGACCGUCCUCUCGGUAAUGGCGAAUGGGACCCA [U20A C63U]  0.101
56. GGCCGGCAUGGUCCCAGCUUCCUCGCUGGGGCCGGCUGGGCAACAUUCCGAGGGGACCGUCCCCUCGGUAAUGGCGAAUGGGACCCA [C19U C30G]  0.0936
57. GGCCGGCAUGGUCCCAGCCUCCUCGCUGGCGCCGGCUGGGCAUCAUUCCGAGGGGACCGUCCCCUCGGUAAUGGCGAAUGGUACCCA [A43U G82U]  0.0923
58. GGCCGGCAUGGUCCCAGUCUCCUCGCUGGCGCCGGCUUGGCAACAUUCCGAGGGGACCGUCCCCUCGGUAAUGGCGAAUGGGACCCA [C18U G38U]  0.0875
59. GGCCGGAAUGGUCCCAGCCUCCUCGCUGGCGCCGGCUGGGCAACAUUCCGAGGGGACCGUCCCCUCGGUAAUGGCGACUGGGACCCA [C7A A78C]  0.0554
60. GGCCGGCAUGGUCCCAGCCACCUCGCUGGCGCCGGCUGGGAAACAUUCCGAGGGGACCGUCCCCUCGGUAAUGGCGAAUGGGACCCA [U20A C41A]  0.0396
61. GGCCGGCAUGGACCCAGCGUCCUCGCUGGCGCCGGCUGGGCAACAUUCCGAGGGGACCGUCCCCUCGGUAAUGGCGAAUGGGACCCA [U12A C19G]  0
62. GUCCGGCAUGGUCCCAGCCUCCUCGCUGGCGCCGGCUGGGCAACAUUCCGAGGGGACCGUCCCCUCGGUAAUGGCGAAUGGGACUCA [G2U C85U]  0
63. GGCCCGCAUGGUCCCAGCCUCCUCGCUGGCGCCGGCUGGGCAACAUUCCGAGGGGACCGUCCCCUCGGUAAUGGUGAAUGGGACCCA [G5C C75U]  0
64. GGCCGGCAUGGUCCCAGCCGCCUCGCCGGCGCCGGCUGGGCAACAUUCCGAGGGGACCGUCCCCUCGGUAAUGGCGAAUGGGACCCA [U20G U27C]  0
